The values below come from patent US20110257890A1 (IMMATICS BIOTECHNOLOGIES, published 2011).

B1: PPAP2C-001 (peptide)
peptide: AYLVYTDRL
B2: MST1R-001 (peptide)
peptide: NYLLYVSNF
B3: AVL9-001 (peptide)
peptide: FYISPVNKL
B4: ERBB3-001 (peptide)
peptide: VYIEKNDKL
B5: ASPM-002 (peptide)
peptide: SYNPLWLRI
B6: PLK4-001 (peptide)
peptide: QYASRFVQL
B7: SIAH2-001 (peptide)
peptide: VFDTAIAHLF
B8: UQCRB-001 (peptide)
peptide: YYNAAGFNKL
B9: MMP3-001 (peptide)
peptide: VFIFKGNQF
B10: NUF2-002 (peptide)
peptide: RFLSGIINF
B11: KIF2C-001 (peptide)
peptide: IYNGKLFDLL
B12: NUF2-001 (peptide)
peptide: VYGIRLEHF
B13: IQGAP3-001 (peptide)
peptide: VYKVVGNLL
B14: ATAD2-001 (peptide)
peptide: AYAIIKEEL
B15: CDC2-001 (peptide)
peptide: LYQILQGIVF
notes: also called TUMAP encoded by CDK1
B16: HSP90B1-001 (peptide)
peptide: KYNDTFWKEF
B17: UCHL5-001 (peptide)
peptide: NYLPFIMEL
B18: MET-006 (peptide)
peptide: SYIDVLPEF
B19: ABL1-001 (peptide)
peptide: TYGNLLDYL
B20: NFYB-001 (peptide)
peptide: VYTTSYQQI
B21: ASPM-001 (peptide)
peptide: RYLWATVTI
B22: SMC4-001 (peptide)
peptide: HYKPTPLYF
B23: MUC6-001 (peptide)
peptide: NYEETFPHI

In the experiment the target is T1, recombinant HLA-A*2402 molecules lacking the transmembrane domain (human, biotinylated at the carboxy terminus of the heavy chain).
T1 construct: Loaded with the peptide in question; used on streptavidin beads (aAPC) and as PE- or APC-coupled multimers
The experiment can be described thus: peptide-loaded recombinant HLA-A*2402 on beads for T-cell priming, read out with A*2402 multimers.
On to B1, for which the binding result was “binds”.

B2: the binding result is on record as “binds”.

For the molecule B3, the binding result was “binds”. Take B4: the binding result is reported as “binds”. Under B5 stands “binds”. Regarding B6, the binding result is reported as “binds”. For B7 the value was “binds”; for B8, “binds”.

Consider B9, for which the binding result is on record as “binds”. Under B10 stands “binds”; under B11, “binds”. For B12 the value was “binds”; for B13, “binds”. Regarding B14, the binding result is recorded as “binds”.

B15: the binding result is recorded as “binds”. Under B16 stands “binds”; under B17, “binds”. Under B18 stands “binds”; under B19, “binds”.

Turning to B20, the binding result is “binds”. On to B21, for which the binding result is listed as “binds”. Under B22 stands “binds”; under B23, “binds”.
